For orientation: IC50 means the midpoint of a concentration-inhibition curve.

The test addresses T1, uPAR carrying the S90P substitution (human, UniProt Q03405 23-305, S90P).
T1 construct: human uPAR, whole cDNA in pcDNA3 with S90P made by site-specific mutagenesis, on 293 cells; also called uPAR^S90P; source: on intact adherent cells and in RIPA lysate
Nature of the test: radioligand binding; 10 nM ^125I-Vn with increasing unlabeled Vn on adherent transfected 293 clones (2×10^5 cells/well), 3 hours at 4°C, binding buffer DMEM, 1 mg/ml BSA, 10 mM Hepes pH 7.4; surface-bound label recovered by acid wash pH 3.0; apparent Kd; cells also carry endogenous αvβ5. Conditions: one partner purified.

T1 sequence (Q03405 23-305 S112P): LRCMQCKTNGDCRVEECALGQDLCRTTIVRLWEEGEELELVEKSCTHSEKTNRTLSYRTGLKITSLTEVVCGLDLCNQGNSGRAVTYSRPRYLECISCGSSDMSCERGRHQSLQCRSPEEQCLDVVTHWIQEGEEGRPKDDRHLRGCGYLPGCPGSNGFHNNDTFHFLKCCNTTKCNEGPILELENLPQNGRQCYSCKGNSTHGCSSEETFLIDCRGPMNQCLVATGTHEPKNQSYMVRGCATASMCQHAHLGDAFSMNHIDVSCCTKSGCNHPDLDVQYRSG

B1: vitronectin (ligand, UniProt P04004 20-478, looked up)
chain: DQESCKGRCTEGFNVDKKCQCDELCSYYQSCCTDYTAECKPQVTRGDVFTMPEDEYTVYDDGEEKNNATVHEQVGGPSLTSDLQAQSKGNPEQTPVLKPEEEAPAPEVGASKPEGIDSRPETLHPGRPQPPAEEELCSGKPFDAFTDLKNGSLFAFRGQYCYELDEKAVRPGYPKLIRDVWGIEGPIDAAFTRINCQGKTYLFKGSQYWRFEDGVLDPDYPRNISDGFDGIPDNVDAALALPAHSYSGRERVYFFKGKQYWEYQFQHQPSQEECEGSSLSAVFEHFAMMQRDSWEDIFELLFWGRTSAGTRQPQFISRDWHGVPGQVDAAMAGRIYISGMAPRPSLAKKQRFRHRNRKGYRSQRGHSRGRNQNSRRPSRATWLSLFSSEESNLGANNYDDYRMDWLVPATCEPIQSVFFFSGDKYYRVNLRTRRVDTVDPPYPRSIAQYWLGCPAPGHL
modifications: ^125I (radio-iodinated with Na^125I using IODO-BEADS) on the tracer; the competitor is unlabeled
notes: vitronectin (Vn), bought from Promega; also called Vn; ^125I-Vn; source: bought: Promega
B1: the IC50 was roughly 10 nM.

The values above are taken from PMC3458052, “Single Amino Acid Substitutions in the Chemotactic Sequence of Urokinase Receptor Modulate Cell Migration and Invasion” (PLoS ONE, 2012).
